Measurements as given in US20230034906A1 (TRINOMAB BIOTECH, published 2023).

Key:
Assay in all cases: indirect ELISA, antibody titrated on gB glycoprotein mutant
[1] = target: T1, gB_Towne protein with N447 mutated into glutamine (human cytomegalovirus, strain Towne, UniProt F5HB53 25-700)
T1 chain: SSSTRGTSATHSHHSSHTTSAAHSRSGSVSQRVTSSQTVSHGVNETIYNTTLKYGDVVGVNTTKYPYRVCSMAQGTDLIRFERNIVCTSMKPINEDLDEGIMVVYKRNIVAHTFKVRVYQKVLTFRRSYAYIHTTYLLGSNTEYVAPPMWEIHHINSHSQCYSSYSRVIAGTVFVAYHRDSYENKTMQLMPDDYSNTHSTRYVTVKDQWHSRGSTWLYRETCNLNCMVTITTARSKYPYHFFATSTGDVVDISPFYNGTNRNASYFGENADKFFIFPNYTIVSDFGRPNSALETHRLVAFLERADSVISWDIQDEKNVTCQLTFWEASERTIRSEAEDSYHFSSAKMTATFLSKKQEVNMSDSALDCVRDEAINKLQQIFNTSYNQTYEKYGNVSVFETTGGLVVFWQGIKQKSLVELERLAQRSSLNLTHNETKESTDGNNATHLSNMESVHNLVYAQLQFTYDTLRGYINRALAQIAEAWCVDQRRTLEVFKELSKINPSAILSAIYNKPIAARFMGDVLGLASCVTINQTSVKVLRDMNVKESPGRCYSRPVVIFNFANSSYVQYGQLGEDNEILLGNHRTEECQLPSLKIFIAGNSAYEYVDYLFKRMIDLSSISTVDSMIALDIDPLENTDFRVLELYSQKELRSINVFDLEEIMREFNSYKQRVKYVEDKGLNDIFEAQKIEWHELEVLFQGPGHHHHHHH

[2] = target: T2, gB_Towne protein with N281 mutated into glutamine (human cytomegalovirus, strain Towne, UniProt F5HB53 25-700)
T2 chain: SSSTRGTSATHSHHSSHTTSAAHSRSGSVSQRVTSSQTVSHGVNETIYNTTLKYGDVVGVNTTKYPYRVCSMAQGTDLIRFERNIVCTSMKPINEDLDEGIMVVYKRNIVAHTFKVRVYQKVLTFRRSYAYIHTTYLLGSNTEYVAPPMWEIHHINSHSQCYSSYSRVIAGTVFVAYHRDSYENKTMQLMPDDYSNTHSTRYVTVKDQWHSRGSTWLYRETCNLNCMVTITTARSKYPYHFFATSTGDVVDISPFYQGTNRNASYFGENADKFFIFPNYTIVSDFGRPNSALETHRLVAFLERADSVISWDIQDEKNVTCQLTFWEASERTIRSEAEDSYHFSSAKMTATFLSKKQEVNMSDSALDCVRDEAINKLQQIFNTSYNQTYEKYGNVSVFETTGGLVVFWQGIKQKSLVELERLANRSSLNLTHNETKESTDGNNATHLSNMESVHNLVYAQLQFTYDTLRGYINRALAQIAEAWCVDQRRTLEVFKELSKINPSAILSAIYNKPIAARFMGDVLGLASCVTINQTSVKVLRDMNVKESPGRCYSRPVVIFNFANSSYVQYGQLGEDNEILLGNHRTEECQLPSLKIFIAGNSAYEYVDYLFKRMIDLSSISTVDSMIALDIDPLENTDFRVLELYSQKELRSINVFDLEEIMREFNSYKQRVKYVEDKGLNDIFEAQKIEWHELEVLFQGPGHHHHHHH

[3] = target: T3, gB_Towne protein with N405 mutated into glutamine (human cytomegalovirus, strain Towne, UniProt F5HB53 25-700)
T3 chain: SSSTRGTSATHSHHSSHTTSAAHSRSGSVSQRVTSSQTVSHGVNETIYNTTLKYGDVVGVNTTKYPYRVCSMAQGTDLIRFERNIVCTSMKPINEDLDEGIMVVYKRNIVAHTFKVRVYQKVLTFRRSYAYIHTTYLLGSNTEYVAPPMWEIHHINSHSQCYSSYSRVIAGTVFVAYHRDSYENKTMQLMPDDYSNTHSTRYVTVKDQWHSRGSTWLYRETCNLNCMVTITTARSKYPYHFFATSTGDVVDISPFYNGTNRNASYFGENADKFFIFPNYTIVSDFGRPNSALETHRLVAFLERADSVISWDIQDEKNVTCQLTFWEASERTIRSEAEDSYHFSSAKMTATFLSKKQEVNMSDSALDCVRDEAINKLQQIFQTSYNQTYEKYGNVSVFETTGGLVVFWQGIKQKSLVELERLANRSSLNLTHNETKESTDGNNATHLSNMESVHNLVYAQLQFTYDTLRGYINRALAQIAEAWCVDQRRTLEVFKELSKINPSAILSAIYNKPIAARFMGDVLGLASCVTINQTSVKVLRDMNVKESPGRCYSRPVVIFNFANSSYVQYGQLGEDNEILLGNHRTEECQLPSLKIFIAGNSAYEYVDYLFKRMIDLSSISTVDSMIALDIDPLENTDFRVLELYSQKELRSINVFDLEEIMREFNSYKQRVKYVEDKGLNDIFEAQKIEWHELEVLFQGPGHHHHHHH

[4] = target: T4, gB_Towne protein with N383 mutated into glutamine (human cytomegalovirus, strain Towne, UniProt F5HB53 25-700)
T4 chain: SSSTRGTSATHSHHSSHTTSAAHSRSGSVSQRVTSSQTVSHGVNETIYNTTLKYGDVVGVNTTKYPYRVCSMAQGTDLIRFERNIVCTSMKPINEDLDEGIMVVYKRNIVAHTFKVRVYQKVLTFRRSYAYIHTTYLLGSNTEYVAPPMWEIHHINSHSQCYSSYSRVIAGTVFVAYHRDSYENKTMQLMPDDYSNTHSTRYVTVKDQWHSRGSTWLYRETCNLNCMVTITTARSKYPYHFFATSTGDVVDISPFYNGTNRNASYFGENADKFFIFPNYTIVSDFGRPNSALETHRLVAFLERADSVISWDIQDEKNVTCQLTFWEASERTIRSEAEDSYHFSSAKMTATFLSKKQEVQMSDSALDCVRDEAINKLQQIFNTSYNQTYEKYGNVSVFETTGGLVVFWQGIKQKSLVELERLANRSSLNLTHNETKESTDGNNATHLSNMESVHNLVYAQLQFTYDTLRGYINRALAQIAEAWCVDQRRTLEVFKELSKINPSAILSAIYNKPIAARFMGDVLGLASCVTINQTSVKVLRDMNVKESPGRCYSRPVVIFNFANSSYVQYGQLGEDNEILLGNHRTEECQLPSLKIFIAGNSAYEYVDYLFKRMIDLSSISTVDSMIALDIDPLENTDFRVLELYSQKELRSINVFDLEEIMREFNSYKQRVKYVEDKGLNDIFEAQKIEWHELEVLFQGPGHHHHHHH

Measured: binding result

B1: TRN1019 (antibody, V domains shown)
VH: QVQLVQSGAEVKKPGESLKISCKGSGYTFTNYWIGWVRQMPGAGLEWMAIIFPRDSYSAYSPSFQGRVTISVDKSISTAYLHWSSLEASDTAVYYCAIYNDLRSGNSWGQGTPLIVSS
VL: DIQMTQSPSSLSASVGDRVTITCRASQSITKYLNWYQQKPGRAPKLLIHTTSTLQSGVPSRFSGSGSGTDFTLTISSLQLEDFGTYYCQQSFSTLWTFGQGTKLDIKR
notes: Fully human antibody; kappa light chain
binds: all assays above
